Holding throughout (assay): cell-based or functional assay
The target of test [1] is S protein of Saudi isolate virus (MERS/HCoV/KSA/EMC/2012) (MERS-CoV, Saudi isolate …).
For test [2], the target named is S protein of Jordan isolate virus (MERS-HCoV/Jordan/01) (MERS-CoV, Jordan isolate …).
Test [3] deals with S protein of Korean isolate virus (MERS-CoV/Korea/KNIH/002_05_2015) (MERS-CoV, Korean isolate …).

Changes are numbered by the printed parent chain.

B1: Antibody 5 (fully human antibody) (antibody, V domains shown)
VH: EVQLVQSGAEVKKPGSSVKVSCKASGGTFSSYAISWVRQAPGQGLEWMGRIIPIFGIAKYAQKFQGRVTITADRSTSTAYMELSSLRSEDTAVYYCVTRSGDYSGSSGLAFDIWGQGTMVTVSS
VL: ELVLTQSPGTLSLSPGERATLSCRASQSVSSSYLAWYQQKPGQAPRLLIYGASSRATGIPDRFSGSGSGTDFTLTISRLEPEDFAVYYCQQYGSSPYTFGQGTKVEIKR
Regarding B1, in test [1], the “Neutralizing activity against Saudi virus (MERS-CoV_KSA/EMC/2012) IC50” value was 0.06 µg/mL. Further, the “Neutralizing activity against Jordan virus (MERS-HCoV/Jordan/01) IC50” value in test [2] was 0.09 µg/mL. In addition, the “IC50, PRNT, Korean isolate virus, Second experiment” value (“IC50, PRNT … Second experiment” below) in test [3] was determined as 0.00025 µg/mL.

B2: Antibody 1 (fully human antibody) (antibody, V domains shown)
VH: QVQLVQSGAEVKKPGSSVKVSCKASGGTFSSYVISWVRQAPGQGLEWVGRIIPIFGTVKYAQKFQGRVTITADKSTSTAYMELSSLRSEDTAVYYCARDLPGDSRDGYNYDAFDIWGQGTLVTVSL
VL: GELELTQPPSVSAAPGQKVTISCSGSSSNIGNNYVSWYQQLPGTAPKLLIYDNNKRPSGIPDRFSGSKSGTSATLGITGLQTGDEADYYCGTWDSSLNAGVFGGGTELTVLG
Take B2: the “Neutralizing activity against Saudi virus (MERS-CoV_KSA/EMC/2012) IC50” value in test [1] amounted to 0.44 µg/mL. Besides, the “Neutralizing activity against Jordan virus (MERS-HCoV/Jordan/01) IC50” value in test [2] was found to be 0.11 µg/mL. In test [3], the “IC50, PRNT, Korean isolate virus, First experiment” value was found to be 0.0004 µg/mL.

B3: Antibody 2 (fully human antibody) (antibody, V domains shown)
VH: B2 VH with Q1E, V33A, V48M, T57I, V58A, L121M, L126S
VL: GELVLTQPPSVSAAPGQKVTISCSGSSSNIGNNFVSWYQQLPGTAPKLLIYDNDKRPSGIPDRFSGSKSGTSATLGITGLQTGDEADYYCATWDRSLSVELFGGGTKVTVLG
Turning to B3, the “Neutralizing activity against Saudi virus (MERS-CoV_KSA/EMC/2012) IC50” value in test [1] was 0.09 µg/mL. Also, the “Neutralizing activity against Jordan virus (MERS-HCoV/Jordan/01) IC50” value in test [2] was 0.06 µg/mL. Moreover, the “IC50, PRNT, Korean isolate virus, First experiment” value in test [3] stood at 0.0009 µg/mL.

B4: Antibody 3 (fully human antibody) (antibody, V domains shown)
VH: QVQLQESGPGLVKPSETLSLTCTVSGGSINSRSYYWGWIRQPPGKGLEWIGSIYYSGSTYYNPSLKSRVTISVDTSKNQFSLKLRSVTAADTAVYYCARADREHVWGSYDGPGSPFDYWGQGTLVTVSS
VL: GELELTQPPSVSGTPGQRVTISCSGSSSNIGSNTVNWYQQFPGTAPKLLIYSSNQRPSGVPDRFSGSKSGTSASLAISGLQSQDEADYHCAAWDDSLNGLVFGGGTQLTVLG
B4: in test [1], the “Neutralizing activity against Saudi virus (MERS-CoV_KSA/EMC/2012) IC50” value worked out at 0.13 µg/mL. For the same molecule, in test [2], the “Neutralizing activity against Jordan virus (MERS-HCoV/Jordan/01) IC50” value is 0.11 µg/mL. The “IC50, PRNT … Second experiment” value in test [3] was 0.0032 µg/mL.

B5: Antibody 4 (fully human antibody) (antibody, V domains shown)
VH: B4 VH with H104Y
VL: GELVLTQPPSVSEAPRQRVTISCSGSSSNIGNNAVNWYLQVPGTAPKLLIYGDHQRPSGVPDRFSGSKSGTSASLSISGLQSEDEADYYCAAWDDSLNGVVFGGGTKLTVLG
For B5, the “Neutralizing activity against Saudi virus (MERS-CoV_KSA/EMC/2012) IC50” value in test [1] is 0.06 µg/mL. Moreover, the “Neutralizing activity against Jordan virus (MERS-HCoV/Jordan/01) IC50” value in test [2] is 0.05 µg/mL. The “IC50, PRNT … Second experiment” value in test [3] stood at 0.00165 µg/mL.
